The assay deals with H3_(1-15)K4me3 peptide with an added C-terminal Tyr (UniProt P68431). Put plainly: ITC.

As to “Recombinant JARID1A_(PHD3) protein used for calorimetry (domain or fragment)”, the Kd came out at 750 nM.
